Measurements published in PMC10633859.

Key:
[1] = molecular target: SIRT6 full length (SIRT6FL) (human, UniProt Q8N6T7 1-355); experiment: EMSA
SIRT6(1-300) = SIRT6(1-300) (human, UniProt Q8N6T7 1-300); experiment: EMSA
SIRT6(1-300), sequence (Q8N6T7 1-300): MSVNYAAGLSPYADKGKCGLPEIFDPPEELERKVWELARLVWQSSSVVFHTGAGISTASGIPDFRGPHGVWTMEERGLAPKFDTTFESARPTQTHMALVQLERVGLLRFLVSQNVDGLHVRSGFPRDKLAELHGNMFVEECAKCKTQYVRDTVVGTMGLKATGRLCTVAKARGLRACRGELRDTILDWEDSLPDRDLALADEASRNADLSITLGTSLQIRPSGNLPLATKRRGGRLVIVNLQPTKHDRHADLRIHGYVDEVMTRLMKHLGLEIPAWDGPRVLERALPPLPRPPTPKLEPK

SIRT6 full length (SIRT6FL), sequence (Q8N6T7 whole entry): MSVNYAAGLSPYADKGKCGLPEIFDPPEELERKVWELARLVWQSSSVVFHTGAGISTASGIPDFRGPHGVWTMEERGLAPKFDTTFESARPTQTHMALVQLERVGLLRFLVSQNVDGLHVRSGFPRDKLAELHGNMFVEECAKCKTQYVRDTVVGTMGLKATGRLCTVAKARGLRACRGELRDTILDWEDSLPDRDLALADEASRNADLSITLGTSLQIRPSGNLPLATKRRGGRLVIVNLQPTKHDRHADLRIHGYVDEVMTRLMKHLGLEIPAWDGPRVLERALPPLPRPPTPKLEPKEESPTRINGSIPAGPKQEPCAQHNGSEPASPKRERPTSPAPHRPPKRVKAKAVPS

B1: fluorescent dsDNA 47 bp (dsDNA)
DNA 1: CAGATCTACCGAATCAGTCCGACGACGCATCTGCACTACGAGGATAC
DNA 2: GTATCCTCGTAGTGCAGATGCGTCGTCGGACTGATTCGGTAGATCTG
Kd [1]: 1.93 ± 0.1 µM | Kd (SIRT6(1-300)): 9.68 ± 0.39 µM
